From patent US20170190775A1 come the findings set out here.

One may read the Kd as the free concentration of one partner at which half of the binding sites on the other are occupied at equilibrium, for simple one-to-one binding.

Test [1] has as its target human TREM-1 on cells (human) (UniProt Q9NP99). Put plainly: cell-based or functional assay.
Test [2] has as its target human TREM-1 (hTREM-1) protein (human) (UniProt Q9NP99). Put plainly: SPR, mAb captured by anti-Fc, hTREM-1 as analyte (Example 11). (In general: Surface plasmon resonance follows binding to a sensor surface in real time, without labels.)
Test [3] deals with cynomolgus TREM-1 (cTREM-1) protein (cynomolgus monkey). Put plainly: SPR, mAb captured by anti-Fc, cTREM-1 as analyte (Example 11).
For test [4], the target named is T1, full length cynomolgus monkey (c)TREM-1 on cells (cynomolgus monkey).
T1 sequence: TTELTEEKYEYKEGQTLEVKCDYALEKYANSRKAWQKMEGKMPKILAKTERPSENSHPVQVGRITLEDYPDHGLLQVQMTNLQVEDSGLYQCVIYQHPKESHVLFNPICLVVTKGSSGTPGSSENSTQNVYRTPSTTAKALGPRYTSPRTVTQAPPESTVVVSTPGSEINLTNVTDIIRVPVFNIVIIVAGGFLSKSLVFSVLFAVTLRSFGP
Put plainly: cell-based or functional assay.

Chain of human TREM-1 (hTREM-1) protein (human) (Q9NP99 21-200 limits assumed): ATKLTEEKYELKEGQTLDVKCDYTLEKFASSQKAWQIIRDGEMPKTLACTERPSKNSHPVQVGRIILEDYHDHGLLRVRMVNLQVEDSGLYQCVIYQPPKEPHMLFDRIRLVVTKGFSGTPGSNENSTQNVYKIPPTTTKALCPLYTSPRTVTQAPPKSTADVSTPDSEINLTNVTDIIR
Chain of recombinant human PGLYRP1 expressed from E. coli and refolded (O75594 22-196 limits assumed): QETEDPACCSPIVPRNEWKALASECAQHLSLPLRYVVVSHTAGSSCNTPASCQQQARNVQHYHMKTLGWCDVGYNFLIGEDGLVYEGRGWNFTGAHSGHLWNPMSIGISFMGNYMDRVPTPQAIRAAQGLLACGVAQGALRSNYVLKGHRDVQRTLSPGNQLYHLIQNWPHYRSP
Chain of human TREM-1 on cells (human) (Q9NP99 21-234 limits assumed): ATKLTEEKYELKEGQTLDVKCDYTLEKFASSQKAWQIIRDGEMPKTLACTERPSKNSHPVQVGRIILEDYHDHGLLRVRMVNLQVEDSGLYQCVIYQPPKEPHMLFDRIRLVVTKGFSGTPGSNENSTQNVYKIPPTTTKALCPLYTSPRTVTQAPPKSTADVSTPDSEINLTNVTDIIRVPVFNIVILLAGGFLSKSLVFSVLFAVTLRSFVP

In the case of “HM2252 (clone 6B1, Hycult Biotech) (antibody)”, in test [1], the % remaining activity at 0.003 µg/ml, BWZ/hTREM-1 reporter was 96%; the % remaining activity at 0.03 µg/ml, BWZ/hTREM-1 reporter was determined as 122%; the % remaining activity at 0.3 µg/ml, BWZ/hTREM-1 reporter amounted to 113%. For the same substance, in test [2], the Kd turned out to be 3 nM.

In test [1], “MAB1278 (R&D Systems, cat. no. MAB1278) (antibody)” registered a BWZ/hTREM-1 reporter signal, RA synovial fluid, mAb at 0.1 ug/ml, assay 1 of 829000; a BWZ/hTREM-1 reporter signal, RA synovial fluid, mAb at 0.1 ug/ml, assay 2 of 691000; a BWZ/hTREM-1 reporter signal, RA synovial fluid, mAb at 1 ug/ml, assay 1 of 1.19e+06; a BWZ/hTREM-1 reporter signal, RA synovial fluid, mAb at 1 ug/ml, assay 2 of 1.02e+06. Besides, in test [1], the BWZ/hTREM-1 reporter signal, RA synovial fluid, mAb at 10 ug/ml, assay 1 stood at 1.08e+06; the BWZ/hTREM-1 reporter signal, RA synovial fluid, mAb at 10 ug/ml, assay 2 stood at 1.05e+06; the IL-6, M2 macrophages on platebound mAb 2 µg/ml is 412 pg/mL; the IL-6, M2 macrophages on platebound mAb 6 µg/ml turned out to be 877 pg/mL. Besides, in test [1], the IL-6, M2 macrophages on platebound mAb 20 µg/ml was 1350 pg/mL; the Luminescence, BWZ/hTREM-1 reporter cell + activated neutrophils (8.8 x 10E6 without antibody) worked out at 1e+07 luminescence; the TNFa, M2 macrophages on platebound mAb 2 µg/ml was determined as 2000 pg/mL; the TNFa, M2 macrophages on platebound mAb 6 µg/ml came out at 6450 pg/mL. In test [1], this substance showed a TNFa, M2 macrophages on platebound mAb 20 µg/ml of 7750 pg/mL; a fold induction of the BWZ/hTREM-1 reporter signal by platebound antibody of 32 fold; an induction of NFAT-driven LacZ production, 1-10 µg/ml plate bound antibody against isotype control of 40 fold; a normalised reporter signal, PGN-activated neutrophils (normalised signal) greater than 1. The substance further showed a Kd in test [2] of 8 nM.

Take “SAB1405121 (clone 3F5, Sigma Aldrich) (antibody)”: in test [1], the % remaining activity at 0.003 µg/ml, BWZ/hTREM-1 reporter came to 104%; the % remaining activity at 0.03 µg/ml, BWZ/hTREM-1 reporter turned out to be 101%; the % remaining activity at 0.3 µg/ml, BWZ/hTREM-1 reporter came to 97%.

For the substance “WH0054210M4 (clone 2E2, Sigma Aldrich) (antibody)”, in test [1], the % remaining activity at 0.003 µg/ml, BWZ/hTREM-1 reporter was 98%; the % remaining activity at 0.03 µg/ml, BWZ/hTREM-1 reporter is 104%; the % remaining activity at 0.3 µg/ml, BWZ/hTREM-1 reporter came to 86%. In test [2], the Kd worked out at 20 nM.

As to clone TREM-26 (Biolegend) (antibody), the Kd in test [3] is 4 nM. For the same substance, in test [1], the % remaining activity at 0.003 µg/ml, BWZ/hTREM-1 reporter worked out at 100%; the % remaining activity at 0.03 µg/ml, BWZ/hTREM-1 reporter worked out at 124%; the % remaining activity at 0.3 µg/ml, BWZ/hTREM-1 reporter is 108%; the Luminescence, BWZ/hTREM-1 reporter cell + activated neutrophils (8.8 x 10E6 without antibody) amounted to 9.9e+06 luminescence. This substance also had a normalised reporter signal, PGN-activated neutrophils (normalised signal) in test [1] greater than 1. Moreover, in test [4], the % remaining cyno TREM-1 activity at 0.74 ug/ml, reporter cell stood at 104% and the % remaining cyno TREM-1 activity at 20 ug/ml, reporter cell turned out to be 87.7%. The substance also gave a Kd in test [2] of 0.9 nM.

Consider “clone TREM-37 (Biolegend, cat. no. 316102) (antibody)”, for which, in test [1], the % remaining activity at 0.003 µg/ml, BWZ/hTREM-1 reporter amounted to 98%; the % remaining activity at 0.03 µg/ml, BWZ/hTREM-1 reporter came to 103%; the % remaining activity at 0.3 µg/ml, BWZ/hTREM-1 reporter came out at 90%; the Luminescence, BWZ/hTREM-1 reporter cell + activated neutrophils (8.8 x 10E6 without antibody) turned out to be 6.1e+06 luminescence. For the same substance, the normalised reporter signal, PGN-activated neutrophils (normalised signal) in test [1] was greater than 1. Moreover, in test [2], the Kd was found to be 0.8 nM.

As to “recombinant human PGLYRP1 expressed from E. coli and refolded (from UniProt O75594 22-196) (ligand)”, in test [1], the GM-CSF, RA synovial tissue cells, PGN + PGLYRP1 (PGN alone 182) is 616 pg/mL; the IL-1beta, RA synovial tissue cells, PGN + PGLYRP1 (PGN alone 2419) was determined as 3770 pg/mL; the IL-6, RA synovial tissue cells, PGN + PGLYRP1 (PGN alone 2057) was determined as 4190 pg/mL; the IL-8, RA synovial tissue cells, PGN + PGLYRP1 (PGN alone 2575) turned out to be 5510 pg/mL. Moreover, in test [1], the MCP-1, RA synovial tissue cells, PGN + PGLYRP1 (PGN alone 273) was 471 pg/mL; the MIP-1beta, RA synovial tissue cells, PGN + PGLYRP1 (PGN alone 2458) turned out to be 4400 pg/mL; the TNFa, normoxic M2 macrophages, PGN-BS + PGLYRP1, donor 1 (PGN-BS alone 427) was determined as 728 pg/mL; the TNFa, normoxic M2 macrophages, PGN-BS + PGLYRP1, donor 2 (PGN-BS alone 381) is 771 pg/mL. Moreover, the TNFalpha, RA synovial tissue cells, PGN + PGLYRP1 (PGN alone 624) in test [1] stood at 1440 pg/mL. Further, in test [4], the TNF-α, cynomolgus M2 macrophages, PGN + PGRP-S, donor 1 amounted to 295 pg/mL and the TNF-α, cynomolgus M2 macrophages, PGN + PGRP-S, donor 2 is 307 pg/mL.

On to “sc-80394 (clone 98Z12, Santa Cruz Biotechnology) (antibody)”, for which, in test [1], the % remaining activity at 0.003 µg/ml, BWZ/hTREM-1 reporter was 120%; the % remaining activity at 0.03 µg/ml, BWZ/hTREM-1 reporter was found to be 134%; the % remaining activity at 0.3 µg/ml, BWZ/hTREM-1 reporter was found to be 131%. This substance came in with a Kd in test [2] of 30 nM.

In the case of “type II PGLYRP1 on transiently transfected HEK cells (ligand)”, in test [1], the TNF-a release, RA synovial tissue cells + IgG4 + 1 x 10^3 Type II cells is 57.9 pg/mL; the TNF-a release, RA synovial tissue cells + IgG4 + 1 x 10^4 Type II cells was determined as 95 pg/mL; the TNF-a release, RA synovial tissue cells + IgG4 + 1 x 10^5 Type II cells is 121 pg/mL; the TNF-a release, RA synovial tissue cells + IgG4 + 3 x 10^3 Type II cells is 54.6 pg/mL. Moreover, the TNF-a release, RA synovial tissue cells + IgG4 + 3 x 10^4 Type II cells in test [1] came to 114 pg/mL.
